Paper PMC6561935, “Hsp90 middle domain phosphorylation initiates a complex conformational program to recruit the ATPase-stimulating cochaperone Aha1” (Nature Communications, 2019)

Experiments:
Hsp90-H210A (human) = Hsp90-H210A (human) (UniProt P07900); test: ITC; 20 mM Tris pH 7.5, 5 mM NaCl, 1 mM EDTA, 30 °C; Hsp90 listed as protein, hAha1 as ligand; at least 3 experiments
[1] = target: purified Hsp90-H210A (human) (UniProt P07900); test: ITC; Supplementary Table 2, obtained separately: 20 mM Tris pH 7.5, 5 mM NaCl, 1 mM EDTA, 30 °C

Row | Kd (Hsp90-H210A (human)) [µM] | stoichiometry N (Hsp90-H210A (human)) | fold increase of Kd against wild-type Hsp90 [1] [fold] | Substance
1 | 14.6 | 0.37 |  | Human Aha1 (wild-type, full-length) (from UniProt O95433 1-338) (natural protein)
2 |  |  | 2 | purified full-length Aha1 (from UniProt O95433 1-338) (natural protein)
